These results are taken from patent US20200306367A1 (University of Washington, published 2020).

The target in assay [1] is T1, human CD180 (human, UniProt Q99467 24-661).
T1 construct: whole, on cells; Native CD180 on primary human B cells; also called RP105; Bgp95
T1 sequence: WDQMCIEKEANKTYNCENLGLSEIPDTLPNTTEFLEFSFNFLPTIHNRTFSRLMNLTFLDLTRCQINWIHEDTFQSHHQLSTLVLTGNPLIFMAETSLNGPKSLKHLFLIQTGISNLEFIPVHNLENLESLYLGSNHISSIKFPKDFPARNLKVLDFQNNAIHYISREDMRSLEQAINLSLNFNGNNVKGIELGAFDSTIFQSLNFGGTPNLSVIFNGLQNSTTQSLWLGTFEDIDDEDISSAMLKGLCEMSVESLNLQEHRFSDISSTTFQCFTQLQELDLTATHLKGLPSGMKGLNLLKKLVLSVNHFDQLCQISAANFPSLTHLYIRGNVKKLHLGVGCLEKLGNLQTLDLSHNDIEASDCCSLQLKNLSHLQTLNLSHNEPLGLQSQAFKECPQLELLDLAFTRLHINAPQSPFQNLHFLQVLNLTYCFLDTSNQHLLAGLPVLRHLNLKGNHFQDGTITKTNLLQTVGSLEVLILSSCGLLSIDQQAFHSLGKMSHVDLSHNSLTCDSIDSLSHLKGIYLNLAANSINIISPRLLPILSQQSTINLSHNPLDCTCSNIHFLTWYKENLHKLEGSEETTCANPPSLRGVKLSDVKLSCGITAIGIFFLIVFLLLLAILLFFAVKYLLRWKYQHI
Kind of assay: flow cytometry competition on human B cells; 2.5 ug unlabelled G28-8 first, then 10 ug G28-8-PE.

Assay [2] addresses T1, human CD180. Briefly: flow cytometry on human B cells (figure legend). For orientation: In flow cytometry, cells or beads pass a laser one at a time.

B1: G28-8 anti-human CD180 monoclonal antibody (antibody, V domains shown)
VH: EVQLQQSGPELVKPGASMKISCKASGYSFTGYTMNWVKQSHGKTLEWIGLINPYNGVTSYNQKFKDKATLTVDKSSSTAYMELLSLTSEDSAIYYCARDYNYDYFDYWGQGTTLTVSS
VL: DIQMTQSPASLSASVGETVTITCRASEKIYSYLAWYQQKQGKSPQLLVYNAKTLAEGVPSRFSVSGSGTQFSLRINSLQPEDFGTYYCQHHFGSPRTFGGGTKLEIK
notes: Commercial parent monoclonal antibody, a whole IgG; also called G28-8 mAb; parent G28-8 antibody
Regarding B1, the binding result with human CD180 [1] is recorded as “binds”.

B2: G28-8LH-HBcAgY132A-His (scFv)
chain: DIQMTQSPASLSASVGETVTITCRASEKIYSYLAWYQQKQGKSPQLLVYNAKTLAEGVPSRFSVSGSGTQFSLRINSLQPEDFGTYYCQHHFGSPRTFGGGTKLEIKDLGGGGSGGGGSGGGGSGGGGSTGEVQLQQSGPELVKPGASMKISCKASGYSFTGYTMNWVKQSHGKTLEWIGLINPYNGVTSYNQKFKDKATLTVDKSSSTAYMELLSLTSEDSAIYYCARDYNYDYFDYWGQGTTLTVSSGGGGSGGGGSGGGGSGGGGSMDIDPYKEFGASVELLSFLPSDFFPSIRDLLDTASALYREALESPEHCSPHHTALRQAILCWGELMNLATWVGSNLEDPASRELVVSYVNVNMGLKIRQLLWFHISCLTFGRETVLEYLVSFGVWIRTPPAARPPNAPILSTLPETTVVHHHHHH
notes: Anti-human CD180 scFv (VL-VH) fused to HBcAg(1-149) Y132A and a 6xHis tag, made in CHO cells and purified on nickel resin; the tested protein carried it, since it was detected with anti-6xHis; also called aCD180-HBVAg; HBcAg-CD180
For the molecule B2, the binding result with human CD180 [2] is reported as “binds”.
